Experimental data from publication PMC9515098, “Structural basis for the activity regulation of a potassium channel AKT1 from Arabidopsis” (Nature Communications, 2022).

Key:
[1] = target: the molecule itself; assay: cryo-EM structure; single-particle cryo-EM of the purified channel from Sf9 cells; 25 mM Tris-HCl pH 7.4, 150 mM KCl, 0.1% digitonin
[2] = target: the molecule itself; assay: cryo-EM structure; single-particle cryo-EM of AKT1 co-expressed with CIPK23 and CBL1 in HEK293 cells; 0.08% digitonin, 0.5 mM CaCl2, 5 mM MnCl2, 1 mM ATP, 1 mM sodium orthovanadate; map at about 11 Å
[3] = target: the molecule itself; assay: cryo-EM structure; cryo-EM, 2D classification only (preliminary analysis); no map or model reported

B1: Arabidopsis thaliana potassium channel AKT1, wild type (Flag-tagged, from Sf9 cells) (natural protein)
chain: not shown
notes: Potassium channel AKT1, Arabidopsis thaliana, UniProt Q38998; Homotetramer in the cryo-EM structure; also called WT AKT1; AKT1 WT
- stoichiometry N [1]: 4

B2: AKT1 Asp379Ala, constitutively-active variant (Flag-tagged, from Sf9 cells) (natural protein)
chain: not shown
notes: Potassium channel AKT1, Arabidopsis thaliana, UniProt Q38998, with the point mutation Asp379Ala; Two cryo-EM classes (4-fold and 2-fold symmetric cytoplasmic domain); also called AKT1-D379A; constitutively-active mutant; source: Sf9 insect cells (Bac-to-bac baculovirus), purified by the same protocol as AKT1
- binding result [1]: binds

B3: Phosphorylated AKT1 (AKT1 co-expressed with CIPK23 and CBL1 in HEK293 cells) (natural protein)
chain: not shown
modifications: phosphoserine at Ser26 and Ser338 (found by mass spectrometry after co-expression with CIPK23 and CBL1)
notes: Potassium channel AKT1, Arabidopsis thaliana, UniProt Q38998
- binding result [2]: binds

B4: AKT1_(16-857), AKT1 lacking the N-terminal 15 residues (domain or fragment)
chain: not shown
notes: source: purified
- binding result [3]: binds
